Data on 11 molecules can be found in article PMC10771490, “The structure of a tetrameric septin complex reveals a hydrophobic element essential for NC-interface integrity” (Communications Biology, 2024).

Where a chain is given by its changes, count along the chain named. Numbers in names are those of the source.

Data set [1] deals with the molecule itself. In words: SEC; analytical SEC of yeast septin complexes purified by IMAC and IEX; Superose 6, 25 mM Tris pH 8.0, 300 mM NaCl; elution compared with tetramer and octamer references.
Data set [2] deals with the molecule itself. As to the kind of experiment: cross-linking; engineered cysteine pairs across the Cdc10-Cdc10 NC-interface; complexes expressed in E. coli T7-SHuffle Express, purified by IMAC in non-reducing buffers, SDS-PAGE with and without β-Mercaptoethanol, Western blot against the S-tag on Cdc10. (In general: Immunoblotting shows a protein as a band on a membrane.)

Data set [3] has as its target T1, Cdc3_(Q81-A410) (Saccharomyces cerevisiae, UniProt P32457 81-410).
T1 construct: Cdc3, septin of Saccharomyces cerevisiae, residues Q81-A410 (extensions removed); source: E. coli BL21DE3, coexpressed with the other subunits, purified (HisTrap IMAC, anion exchange, SEC)
T1 sequence (looked up): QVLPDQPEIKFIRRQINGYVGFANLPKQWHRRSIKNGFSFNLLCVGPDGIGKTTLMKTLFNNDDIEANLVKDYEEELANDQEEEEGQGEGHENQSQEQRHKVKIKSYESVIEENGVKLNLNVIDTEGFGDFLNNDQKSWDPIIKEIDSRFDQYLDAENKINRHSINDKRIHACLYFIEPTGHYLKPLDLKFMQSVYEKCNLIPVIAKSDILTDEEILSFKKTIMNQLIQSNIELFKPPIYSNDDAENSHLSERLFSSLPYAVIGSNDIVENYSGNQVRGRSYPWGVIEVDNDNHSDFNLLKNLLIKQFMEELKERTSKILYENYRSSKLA
In words: SEC; analytical SEC of yeast septin complexes purified by IMAC and IEX; Superose 6, 25 mM Tris pH 8.0, 300 mM NaCl; elution compared with tetramer and octamer references. The settings on record: both partners purified. (In general: In gel filtration, larger molecules generally elute earlier.)

In data set [4] the target is T1, Cdc3_(Q81-A410). As to the kind of experiment: crystal structure; coexpressed tetrameric complex loaded with GTP before crystallization; sitting-drop vapor diffusion, 20% PEG 5000, 300 mM ammoniumsulfate, 100 mM Bis-Tris pH 6.5, 20 °C; 3.24 Å, space group C 1 2 1, a tetramer in the asymmetric unit. The following applies: both partners purified.
In another data set the target is T2, Shs1_(G21-S339) (Saccharomyces cerevisiae, UniProt Q07657 21-339).
T2 construct: Shs1, septin of Saccharomyces cerevisiae, residues G21-S339 (unstructured extensions removed); The complex was purified on a HisTrap column; source: E. coli BL21DE3, coexpressed with the other subunits, purified (HisTrap IMAC, anion exchange, SEC)
T2 sequence (looked up): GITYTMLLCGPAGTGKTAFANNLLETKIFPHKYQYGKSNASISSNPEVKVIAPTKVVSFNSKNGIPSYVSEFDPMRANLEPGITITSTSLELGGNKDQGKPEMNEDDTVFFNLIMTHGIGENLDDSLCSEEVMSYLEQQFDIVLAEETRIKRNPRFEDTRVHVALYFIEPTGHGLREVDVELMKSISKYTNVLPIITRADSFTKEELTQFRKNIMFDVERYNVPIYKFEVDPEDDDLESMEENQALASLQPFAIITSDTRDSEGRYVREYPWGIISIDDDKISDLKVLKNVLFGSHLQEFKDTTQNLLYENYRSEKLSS
The data set is described as above. The settings on record: both partners purified.

B1: Cdc10_(L27A) (natural protein, Saccharomyces cerevisiae, UniProt P25342 1-322, looked up)
chain: MDPLSSVQPASYVGFDTITNQIEHRLAKKGFQFNIMVVGQSGLGKSTLINTLFASHLIDSATGDDISALPVTKTTEMKISTHTLVEDRVRLNINVIDTPGFGDFIDNSKAWEPIVKYIKEQHSQYLRKELTAQRERFITDTRVHAILYFLQPNGKELSRLDVEALKRLTEIANVIPVIGKSDTLTLDERTEFRELIQNEFEKYNFKIYPYDSEELTDEELELNRSVRSIIPFAVVGSENEIEINGETFRGRKTRWSAINVEDINQCDFVYLREFLIRTHLQDLIETTSYIHYEGFRARQLIALKENANSRSSAHMSSNAIQR
notes: Cdc10, septin of Saccharomyces cerevisiae, hydrophobic crest mutant (position 15 of the motif); Compared with the wildtype octamer; source: E. coli BL21DE3, co-expressed as septin complex, purified (IMAC, IEX)
As to B1, the binding result in data set [1] is “binds”.

B2: Cdc10 T19C/E23C (disulfide bridge mutant) (natural protein, Saccharomyces cerevisiae, UniProt P25342 1-322, looked up)
chain: B1 chain with T19C, E23C, A27L
notes: Cdc10, septin of Saccharomyces cerevisiae, native, non-truncated, with two cysteines for a disulfide between the two α0-helices; also called T19C and E23C; source: E. coli T7-SHuffle Express, co-expressed with the other full-length subunits, purified (IMAC, non-reducing buffers)
In the case of B2, in data set [2], the binding result was “binds”.

B3: Cdc10 L26A in the disulfide bridge mutant A132C/L300C (natural protein, Saccharomyces cerevisiae, UniProt P25342 1-322, looked up)
chain: B1 chain with L26A, A27L, A132C, L300C
notes: Cdc10, septin of Saccharomyces cerevisiae, disulfide bridge mutant A132C/L300C with L26A; also called L26A (disulfide mutant); source: E. coli T7-SHuffle Express, co-expressed with the other full-length subunits, purified (IMAC, non-reducing buffers)
As for B3, the binding result in data set [2] is “binds”.

B4: Cdc10 L27A in the disulfide bridge mutant A132C/L300C (natural protein, Saccharomyces cerevisiae, UniProt P25342 1-322, looked up)
chain: B1 chain with A132C, L300C
notes: Cdc10, septin of Saccharomyces cerevisiae, disulfide bridge mutant A132C/L300C with L27A; also called L27A (disulfide mutant); source: E. coli T7-SHuffle Express, co-expressed with the other full-length subunits, purified (IMAC, non-reducing buffers)
With B4, in data set [2], the binding result is “binds”.

B5: Cdc10 Q21C/Q281C (disulfide bridge mutant) (natural protein, Saccharomyces cerevisiae, UniProt P25342 1-322, looked up)
chain: B1 chain with Q21C, A27L, Q281C
notes: source: E. coli T7-SHuffle Express, co-expressed with the other full-length subunits, purified (IMAC, non-reducing buffers)
For the molecule B5, the binding result in data set [2] is on record as “binds”.

B6: Cdc10 A132C/L300C (disulfide bridge mutant) (natural protein, Saccharomyces cerevisiae, UniProt P25342 1-322, looked up)
chain: B1 chain with A27L, A132C, L300C
notes: also called Cdc10^A_(A132)-Cdc10^B_(L300); source: E. coli T7-SHuffle Express, co-expressed with the other full-length subunits, purified (IMAC, non-reducing buffers)
B6: the binding result in data set [2] is given as “binds”.

B7: Cdc10_(M1-R322) (natural protein, Saccharomyces cerevisiae, UniProt P25342 1-322, looked up)
chain: B1 chain with A27L
notes: Cdc10, septin of Saccharomyces cerevisiae, residues M1-R322; kept apart from m6 because it stood with truncated partner subunits; also called Cdc10 with the α0-helix added, in the otherwise truncated complex; source: E. coli BL21DE3, coexpressed with Shs1_(G21-S339), Cdc12_(M1-G314) and Cdc3_(Q81-A410), purified (IMAC, IEX)
For B7, the binding result (in data set [1]; with Cdc3_(Q81-A410) [3]) was “binds” in each case.

B8: Cdc10, native, non-truncated (wild type) (natural protein, Saccharomyces cerevisiae, UniProt P25342 1-322, looked up)
chain: B1 chain with A27L
notes: Cdc10, septin of Saccharomyces cerevisiae, native, non-truncated; An S-tag is named on Cdc10 only for the Western blots of the disulfide mutants; also called Cdc10 of the untruncated octamer; source: E. coli BL21DE3, co-expressed with the other full-length subunits, purified (IMAC, IEX)
As to B8, in data set [1], the binding result was “binds”.

B9: Cdc10 L26A (natural protein, Saccharomyces cerevisiae, UniProt P25342 1-322, looked up)
chain: B1 chain with L26A, A27L
notes: Cdc10, septin of Saccharomyces cerevisiae, mutant of the non-conserved position 14 of the hydrophobic crest motif; Compared with the wildtype octamer; source: E. coli BL21DE3, co-expressed as septin complex, purified (IMAC, IEX)
Take B9: in data set [1], the binding result is “binds”.

B10: Cdc10_(G30-R322) (domain or fragment, Saccharomyces cerevisiae, UniProt P25342 30-322, looked up)
chain: GFQFNIMVVGQSGLGKSTLINTLFASHLIDSATGDDISALPVTKTTEMKISTHTLVEDRVRLNINVIDTPGFGDFIDNSKAWEPIVKYIKEQHSQYLRKELTAQRERFITDTRVHAILYFLQPNGKELSRLDVEALKRLTEIANVIPVIGKSDTLTLDERTEFRELIQNEFEKYNFKIYPYDSEELTDEELELNRSVRSIIPFAVVGSENEIEINGETFRGRKTRWSAINVEDINQCDFVYLREFLIRTHLQDLIETTSYIHYEGFRARQLIALKENANSRSSAHMSSNAIQR
notes: Cdc10, septin of Saccharomyces cerevisiae, residues G30-R322 (lacks the α0-helix); also called Cdc10 lacking the α0-helix; Cdc10 of the truncated tetramer; source: E. coli BL21DE3, coexpressed with the other subunits, purified (HisTrap IMAC, anion exchange, SEC)
Consider B10, for which the binding result with Cdc3_(Q81-A410) [4] is “binds”.

B11: Cdc12_(M1-G314) (domain or fragment, Saccharomyces cerevisiae, UniProt P32468 1-314, looked up)
chain: MSAATATAAPVPPPVGISNLPNQRYKIVNEEGGTFTVMLCGESGLGKTTFINTLFQTVLKRADGQQHRQEPIRKTVEIDITRALLEEKHFELRVNVIDTPGFGDNVNNNKAWQPLVDFIDDQHDSYMRQEQQPYRTKKFDLRVHAVLYFIRPTGHGLKPIDIETMKRLSTRANLIPVIAKADTLTAQELQQFKSRIRQVIEAQEIRIFTPPLDADSKEDAKSGSNPDSAAVEHARQLIEAMPFAIVGSEKKFDNGQGTQVVARKYPWGLVEIENDSHCDFRKLRALLLRTYLLDLISTTQEMHYETYRRLRLEG
notes: Cdc12, septin of Saccharomyces cerevisiae, residues M1-G314 (C-terminal extension removed); source: E. coli BL21DE3, coexpressed with the other subunits, purified (HisTrap IMAC, anion exchange, SEC)
As to B11, the binding result in the data set with Shs1_(G21-S339) and with Cdc3_(Q81-A410) [4] was “binds” in each case.
